Patent publication EP4725963A1 (Jiangsu Hengrui Pharmaceuticals Co., Ltd., dated 2026)
Numbering of substitutions follows the chain as printed.

T1: human NPR1 full-length protein overexpressed on CHO-K1 cells (human, UniProt P16066 33-1061)
T1 sequence: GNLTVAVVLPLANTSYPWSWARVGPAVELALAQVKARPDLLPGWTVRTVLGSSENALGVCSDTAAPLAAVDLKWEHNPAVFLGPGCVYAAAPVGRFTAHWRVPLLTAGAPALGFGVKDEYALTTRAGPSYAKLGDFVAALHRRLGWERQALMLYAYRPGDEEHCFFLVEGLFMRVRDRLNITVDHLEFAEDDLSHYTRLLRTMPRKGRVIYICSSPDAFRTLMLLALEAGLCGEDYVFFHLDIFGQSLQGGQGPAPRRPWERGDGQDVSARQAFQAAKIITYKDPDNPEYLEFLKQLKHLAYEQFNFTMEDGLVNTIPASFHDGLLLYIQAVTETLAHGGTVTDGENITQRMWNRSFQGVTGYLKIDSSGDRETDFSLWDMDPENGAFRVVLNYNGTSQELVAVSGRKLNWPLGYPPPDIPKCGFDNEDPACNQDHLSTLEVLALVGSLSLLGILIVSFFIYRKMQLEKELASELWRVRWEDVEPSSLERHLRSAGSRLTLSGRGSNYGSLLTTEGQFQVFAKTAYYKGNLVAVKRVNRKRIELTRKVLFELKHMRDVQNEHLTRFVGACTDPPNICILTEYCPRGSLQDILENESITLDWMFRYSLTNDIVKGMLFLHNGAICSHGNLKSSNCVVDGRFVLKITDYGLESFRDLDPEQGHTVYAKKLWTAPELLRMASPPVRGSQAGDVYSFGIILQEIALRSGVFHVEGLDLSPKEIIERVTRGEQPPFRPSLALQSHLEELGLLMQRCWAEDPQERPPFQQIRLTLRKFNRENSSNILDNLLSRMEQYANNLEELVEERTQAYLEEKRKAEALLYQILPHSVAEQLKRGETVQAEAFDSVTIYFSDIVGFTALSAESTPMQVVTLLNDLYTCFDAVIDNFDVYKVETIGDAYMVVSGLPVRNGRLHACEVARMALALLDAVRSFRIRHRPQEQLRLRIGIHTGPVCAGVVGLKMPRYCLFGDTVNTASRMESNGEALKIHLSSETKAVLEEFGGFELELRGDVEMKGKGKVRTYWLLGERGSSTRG

B1: CHI-102 (antibody, human IgG1, kappa, V domains shown)
VH: DVKLVESGEGLVKPGGSLKLSCAASGFTFSTYAMSWVRQTPEKRLEWVAYISRGGDYIYYADTVKGRFTISRDNARNTLYLQMSSLKSEDTAMYYCTRDQTTVVVHWYFDVWGTGTTVTVSS
VL: QIVLTQSPAIMSASPGEKVTMTCSASSSINYMHWYQQKPGTSPKRWIYDTSKLASGVPARFSGSGSGTSYSLTISSMEAGDAATYYCHQRNSYTFGGGTKLEIKR
B2: Hu102H3L6 (antibody, human IgG1, kappa, L234A L235A, V domains shown)
VH: B1 VH with K19R, T40A, E42G, R76K, T78S, S84N, K87R, S88A, M93V, T114Q
VL: DIQLTQSPSSLSASVGDRVTITCSASSSINYMHWYQQKPGKSPKRWIYDTSKLASGVPSRFSGSGSGTDYTLTISSLQPEDFATYYCHQRNSYTFGGGTKVEIKR
B3: Hu102H5L6 (antibody, human IgG1, kappa, L234A L235A, V domains shown)
VH: DVKLVESGEGLVKPGGSLRLSCAASGFTFSTYGMSWVRQAPGKRLEWVAYISRGGDYIYYADTVKGRFTISRDNAKNSLYLQMNSLRAEDTAVYYCTRDQTTVVVHWYFDVWGQGTTVTVSS
VL: B2 VL
B4: Hu127H7L5 (antibody, human IgG1, kappa, L234A L235A)
heavy: not shown
light: NIQLTQSPSSLSASVGDRVTITCRASESVDSYGNSFMHWYQQKPGKAPKVLIYLASTLESGVPSRFSGSGSRTDFTLTISSLQPEDFATYYCQQNNEDPLTFGQGTKLEIKRTVAAPSVFIFPPSDEQLKSGTASVVCLLNNFYPREAKVQWKVDNALQSGNSQESVTEQDSKDSTYSLSSTLTLSKADYEKHKVYACEVTHQGLSSPVTKSFNRGEC
B5: Hu127H8L6 (antibody, human IgG1, kappa, L234A L235A)
heavy: not shown
light: B4 light with D17Q, A47P
B6: Hu127H8L5 (antibody, human IgG1, kappa, L234A L235A)
heavy: not shown
light: B4 light
B7: Hu127H7L6 (antibody, human IgG1, kappa, L234A L235A)
heavy: not shown
light: B4 light with D17Q, A47P
B8: Hu127H4L5 (antibody, human IgG1, kappa, L234A L235A, V domains shown)
VH: EAYLVQSGAEVKKPGASVKVSCKASGYSFTGYFMNWVRQAPGKGLEWMGRINPYSGDTFYNQKFKGRVTLTVDKSTSTVYMELSSLRSEDTAVYYCARRGYGNRGYWYFDVWGQGTTVTVSS
VL: NIQLTQSPSSLSASVGDRVTITCRASESVDSYGNSFMHWYQQKPGKAPKVLIYLASTLESGVPSRFSGSGSRTDFTLTISSLQPEDFATYYCQQNNEDPLTFGQGTKLEIKR
B9: Hu127H4L6 (antibody, human IgG1, kappa, L234A L235A, V domains shown)
VH: B8 VH
VL: B8 VL with D17Q, A47P
B10: Hu127H4L1 (antibody, human IgG1, kappa, L234A L235A)
heavy: not shown
light: DIVMTQSPDSLAVSLGERATINCRASESVDSYGNSFMHWYQQKPGQPPKVLIYLASTLESGVPDRFSGSGSRTDFTLTISSLQAEDVAVYYCQQNNEDPLTFGQGTKLEIKRTVAAPSVFIFPPSDEQLKSGTASVVCLLNNFYPREAKVQWKVDNALQSGNSQESVTEQDSKDSTYSLSSTLTLSKADYEKHKVYACEVTHQGLSSPVTKSFNRGEC
B11: Hu127H8L3 (antibody, human IgG1, kappa, L234A L235A)
heavy: not shown
light: B10 light with D1N, M4L
B12: Hu127H4L3 (antibody, human IgG1, kappa, L234A L235A)
heavy: not shown
light: B10 light with D1N, M4L
B13: Hu127H7L3 (antibody, human IgG1, kappa, L234A L235A)
heavy: not shown
light: B10 light with D1N, M4L
B14: Hu127H8L1 (antibody, human IgG1, kappa, L234A L235A)
heavy: not shown
light: B10 light
B15: Hu127H7L1 (antibody, human IgG1, kappa, L234A L235A)
heavy: not shown
light: B10 light
B16: Hu135H1L1 (antibody, human IgG1, kappa, L234A L235A, V domains shown)
VH: B3 VH with S52N, R53S, D56N, Q100R, V103I
VL: DIQLTQSPSSLSASVGDRVTITCSASSSLNFMHWYQQKPGKSPKRWIYDTSKLASGVPSRFSGSGSGTDYTLTISSLQPEDFATYYCHQRSSTFGGGTKVEIKR
B17: Hu135H2L1 (antibody, human IgG1, kappa, L234A L235A, V domains shown)
VH: B3 VH with T28S, F29I, S52N, R53S, D56N, Q100R, V103I
VL: B16 VL

Target: T1, human NPR1 full-length protein …
Assay: cell-based or functional assay

Row | Binder | cGMP production: EC50 | cGMP production: Emax | cGMP production: Emin
1 | B1 | 54.9 nM | 0.57 | 0.23
2 | B2 | 48.5 nM | 0.61 | 0.16
3 | B3 | 43.6 nM | 0.59 | 0.21

Target: T1, human NPR1 full-length protein …
Assay: cell-based or functional assay
Remark: another data set of the same source

Row | Binder | cGMP production: EC50 | cGMP production: Emax | cGMP production: Emin
4 | B4 | 42.6 nM | 0.51 | 0.068
5 | B5 | 36.6 nM | 0.42 | 0.068
6 | B6 | 42 nM | 0.43 | 0.065
7 | B7 | 35.5 nM | 0.49 | 0.063
8 | B8 | 32.4 nM | 0.59 | 0.068
9 | B9 | 38.5 nM | 0.54 | 0.073
10 | B10 | 45.6 nM | 0.6 | 0.077
11 | B11 | 48.6 nM | 0.46 | 0.072
12 | B12 | 51.4 nM | 0.48 | 0.087
13 | B13 | 56.5 nM | 0.54 | 0.066
14 | B14 | 62.6 nM | 0.45 | 0.083
15 | B15 | 55.8 nM | 0.5 | 0.081

Target: T1, human NPR1 full-length protein …
Assay: cell-based or functional assay
Remark: another data set of the same source

Row | Binder | cGMP production: EC50 | cGMP production: Emax | cGMP production: Emin
16 | B16 | 116 nM | 0.43 | 0.22
17 | B17 | 186 nM | 0.45 | 0.143
